Reference: the supplement of paper PMC10567573

B1: INTS3 (parent)
chain: DLNSKGKKREFRFHPIKETVVEEP

Variants of: B1
Assay: protein stability index of a GFP-peptide fusion (GPS, HEK-293T) (PSI 1-6); higher = more stable
Conditions: c terminus: a fixed tail appended
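Also: lentivirally expressed fusions sorted by FACS into six bins by GFP to DsRed ratio, PSI derived from sequencing read proportions per bin multiplied by bin number.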

Variant	protein stability index
DLNSKGKKREFRFHDIKETVVEEP [P15D]	3.57
DLNSKGKKREFRFHGIKETVVEEP [P15G]	3.15
DLNSKGKKREFRFHTIKETVVEEP [P15T]	2.96
DLNSKGKKREFRFHRIKETVVEEP [P15R]	2.9
DLNSKGKKREFRFHVIKETVVEEP [P15V]	3.25
DLNSKGKKREFRFHNIKETVVEEP [P15N]	3.65
DLNSKGKKREFRFHQIKETVVEEP [P15Q]	2.6
DLNSKGKKREFRFHEIKETVVEEP [P15E]	3.2
DLNSKGKKREFRFHWIKETVVEEP [P15W]	2.28
DLNSKGKKREFRFHCIKETVVEEP [P15C]	2.54
DLNSKGKKREFRFHIIKETVVEEP [P15I]	2.65
DLNSKGKKREFRFHYIKETVVEEP [P15Y]	2.74
DLNSKGKKREFRFHAIKETVVEEP [P15A]	2.96
DLNSKGKKREFRFHMIKETVVEEP [P15M]	2.29
DLNSKGKKREFRFHKIKETVVEEP [P15K]	3.18
DLNSKGKKREFRFHSIKETVVEEP [P15S]	2.37
DLNSKGKKREFRFHFIKETVVEEP [P15F]	2.44
DLNSKGKKREFRFHLIKETVVEEP [P15L]	2.82
DLNSKGKKREFRFHHIKETVVEEP [P15H]	3.09
DLNSKGKKREDRFHPIKETVVEEP [F11D]	4.88
DLNSKGKKREARFHPIKETVVEEP [F11A]	3.95
DLNSKGKKREKRFHPIKETVVEEP [F11K]	4.46
DLNSKGKKREYRFHPIKETVVEEP [F11Y]	3.89
DLNSKGKKREIRFHPIKETVVEEP [F11I]	3.55

Variant	protein stability index
DLNSKGKKREVRFHPIKETVVEEP [F11V]	4.02
DLNSKGKKREPRFHPIKETVVEEP [F11P]	4.39
DLNSKGKKREQRFHPIKETVVEEP [F11Q]	4.11
DLNSKGKKRENRFHPIKETVVEEP [F11N]	4.13
DLNSKGKKREERFHPIKETVVEEP [F11E]	4.94
DLNSKGKKREGRFHPIKETVVEEP [F11G]	4.32
DLNSKGKKRELRFHPIKETVVEEP [F11L]	3.84
DLNSKGKKRECRFHPIKETVVEEP [F11C]	4.47
DLNSKGKKRETRFHPIKETVVEEP [F11T]	4.87
DLNSKGKKRESRFHPIKETVVEEP [F11S]	4.39
DLNSKGKKREWRFHPIKETVVEEP [F11W]	2.1
DLNSKGKKREHRFHPIKETVVEEP [F11H]	4.31
DLNSKGKKRERRFHPIKETVVEEP [F11R]	4.28
DLNSKGKKREMRFHPIKETVVEEP [F11M]	4.45
DLNSKGKKRKFRFHPIKETVVEEP [E10K]	2.88
DLNSKGKKRMFRFHPIKETVVEEP [E10M]	1.64
DLNSKGKKRHFRFHPIKETVVEEP [E10H]	2.72
DLNSKGKKRFFRFHPIKETVVEEP [E10F]	1.76
DLNSKGKKRVFRFHPIKETVVEEP [E10V]	1.3
DLNSKGKKRCFRFHPIKETVVEEP [E10C]	2.97
DLNSKGKKRNFRFHPIKETVVEEP [E10N]	2.58
DLNSKGKKRGFRFHPIKETVVEEP [E10G]	2
DLNSKGKKRSFRFHPIKETVVEEP [E10S]	1.65
DLNSKGKKRIFRFHPIKETVVEEP [E10I]	1.78

Variant	protein stability index
DLNSKGKKRAFRFHPIKETVVEEP [E10A]	3.19
DLNSKGKKRYFRFHPIKETVVEEP [E10Y]	1.49
DLNSKGKKRLFRFHPIKETVVEEP [E10L]	1.94
DLNSKGKKRRFRFHPIKETVVEEP [E10R]	1.96
DLNSKGKKRQFRFHPIKETVVEEP [E10Q]	1.87
DLNSKGKKRWFRFHPIKETVVEEP [E10W]	2.1
DLNSKGKKRTFRFHPIKETVVEEP [E10T]	1.99
DLNSKGKKRDFRFHPIKETVVEEP [E10D]	2.7
DLNSKGKKRPFRFHPIKETVVEEP [E10P]	2.55
DLNSKGKKREFRFHPKKETVVEEP [I16K]	2.21
DLNSKGKKREFRFHPPKETVVEEP [I16P]	2.28
DLNSKGKKREFRFHPFKETVVEEP [I16F]	1.88
DLNSKGKKREFRFHPCKETVVEEP [I16C]	1.84
DLNSKGKKREFRFHPLKETVVEEP [I16L]	2.24
DLNSKGKKREFRFHPGKETVVEEP [I16G]	2.29
DLNSKGKKREFRFHPAKETVVEEP [I16A]	2.06
DLNSKGKKREFRFHPHKETVVEEP [I16H]	2.31
DLNSKGKKREFRFHPNKETVVEEP [I16N]	3.04
DLNSKGKKREFRFHPEKETVVEEP [I16E]	2.96
DLNSKGKKREFRFHPDKETVVEEP [I16D]	3.02
DLNSKGKKREFRFHPMKETVVEEP [I16M]	2.79
DLNSKGKKREFRFEPIKETVVEEP [H14E]	4.13
DLNSKGKKREFRFAPIKETVVEEP [H14A]	3.83
DLNSKGKKREFRFQPIKETVVEEP [H14Q]	3.78

Variant	protein stability index
DLNSKGKKREFRFNPIKETVVEEP [H14N]	3.84
DLNSKGKKREFRFMPIKETVVEEP [H14M]	3.53
DLNSKGKKREFRFPPIKETVVEEP [H14P]	4.35
DLNSKGKKREFRFTPIKETVVEEP [H14T]	3.7
DLNSKGKKREFRFSPIKETVVEEP [H14S]	3.89
DLNSKGKKREFRFLPIKETVVEEP [H14L]	4.01
DLNSKGKKREFRFFPIKETVVEEP [H14F]	3.34
DLNSKGKKREFRFIPIKETVVEEP [H14I]	3.57
DLNSKGKKREFRFVPIKETVVEEP [H14V]	2.73
DLNSKGKKREFRFDPIKETVVEEP [H14D]	4.59
DLNSKGKKREFRFRPIKETVVEEP [H14R]	3.88
DLNSKGKKREFRFGPIKETVVEEP [H14G]	4.02
DLNSKGKKREFRFCPIKETVVEEP [H14C]	3.36
DLNSKGKKREFRFYPIKETVVEEP [H14Y]	3.74
DLNSKGKKREFRFWPIKETVVEEP [H14W]	3.44
DLNSKGKKREFRFKPIKETVVEEP [H14K]	3.91
DLNSKGKKREFHFHPIKETVVEEP [R12H]	4.2
DLNSKGKKREFPFHPIKETVVEEP [R12P]	4.07
DLNSKGKKREFSFHPIKETVVEEP [R12S]	4.04
DLNSKGKKREFYFHPIKETVVEEP [R12Y]	4.12
DLNSKGKKREFIFHPIKETVVEEP [R12I]	3.79
DLNSKGKKREFNFHPIKETVVEEP [R12N]	3.74
DLNSKGKKREFCFHPIKETVVEEP [R12C]	3.99
DLNSKGKKREFLFHPIKETVVEEP [R12L]	3.57

Variant	protein stability index
DLNSKGKKREFDFHPIKETVVEEP [R12D]	4.25
DLNSKGKKREFAFHPIKETVVEEP [R12A]	4.15
DLNSKGKKREFKFHPIKETVVEEP [R12K]	4.11
DLNSKGKKREFFFHPIKETVVEEP [R12F]	3.13
DLNSKGKKREFEFHPIKETVVEEP [R12E]	4.03
DLNSKGKKREFQFHPIKETVVEEP [R12Q]	4
DLNSKGKKREFWFHPIKETVVEEP [R12W]	3.02
DLNSKGKKREFVFHPIKETVVEEP [R12V]	3.55
DLNSKGKKREFGFHPIKETVVEEP [R12G]	4.24
DLNSKGKKREFTFHPIKETVVEEP [R12T]	4.28
DLNSKGKKREFMFHPIKETVVEEP [R12M]	4.12
DLNSKGKKEEFRFHPIKETVVEEP [R9E]	3.73
DLNSKGKKYEFRFHPIKETVVEEP [R9Y]	2.31
DLNSKGKKDEFRFHPIKETVVEEP [R9D]	4.09
DLNSKGKKPEFRFHPIKETVVEEP [R9P]	2.34
DLNSKGKKTEFRFHPIKETVVEEP [R9T]	2.56
DLNSKGKKGEFRFHPIKETVVEEP [R9G]	2.41
DLNSKGKKFEFRFHPIKETVVEEP [R9F]	1.65
DLNSKGKKMEFRFHPIKETVVEEP [R9M]	1.78
DLNSKGKKCEFRFHPIKETVVEEP [R9C]	2.31
DLNSKGKKVEFRFHPIKETVVEEP [R9V]	2.37
DLNSKGKKIEFRFHPIKETVVEEP [R9I]	2.35
DLNSKGKKAEFRFHPIKETVVEEP [R9A]	2.87
DLNSKGKKSEFRFHPIKETVVEEP [R9S]	2.53

Variant	protein stability index
DLNSKGKKKEFRFHPIKETVVEEP [R9K]	3.07
DLNSKGKKLEFRFHPIKETVVEEP [R9L]	1.78
DLNSKGKKNEFRFHPIKETVVEEP [R9N]	2.49
DLNSKGKKQEFRFHPIKETVVEEP [R9Q]	2.83
DLNSKGKKWEFRFHPIKETVVEEP [R9W]	2.21
DLNSKGKKHEFRFHPIKETVVEEP [R9H]	1.79
DLNSKGCKREFRFHPIKETVVEEP [K7C]	1.86
DLNSKGDKREFRFHPIKETVVEEP [K7D]	3.35
DLNSKGMKREFRFHPIKETVVEEP [K7M]	2.25
DLNSKGFKREFRFHPIKETVVEEP [K7F]	1.72
DLNSKGVKREFRFHPIKETVVEEP [K7V]	2.54
DLNSKGQKREFRFHPIKETVVEEP [K7Q]	2.54
DLNSKGHKREFRFHPIKETVVEEP [K7H]	2.35
DLNSKGYKREFRFHPIKETVVEEP [K7Y]	1.94
DLNSKGGKREFRFHPIKETVVEEP [K7G]	2.28
DLNSKGIKREFRFHPIKETVVEEP [K7I]	2.15
DLNSKGWKREFRFHPIKETVVEEP [K7W]	2.58
DLNSKGRKREFRFHPIKETVVEEP [K7R]	2.37
DLNSKGTKREFRFHPIKETVVEEP [K7T]	2.79
DLNSKGPKREFRFHPIKETVVEEP [K7P]	1.94
DLNSKGSKREFRFHPIKETVVEEP [K7S]	2.48
DLNSKGNKREFRFHPIKETVVEEP [K7N]	2.23
DLNSKGEKREFRFHPIKETVVEEP [K7E]	3.37
DLNSKGLKREFRFHPIKETVVEEP [K7L]	1.62

Variant	protein stability index
DLNSKGAKREFRFHPIKETVVEEP [K7A]	2.57
DLNSKGKVREFRFHPIKETVVEEP [K8V]	1.73
DLNSKGKHREFRFHPIKETVVEEP [K8H]	2
DLNSKGKRREFRFHPIKETVVEEP [K8R]	1.52
DLNSKGKEREFRFHPIKETVVEEP [K8E]	2.93
DLNSKGKPREFRFHPIKETVVEEP [K8P]	1.94
DLNSKGKAREFRFHPIKETVVEEP [K8A]	1.74
DLNSKGKIREFRFHPIKETVVEEP [K8I]	2.24
DLNSKGKYREFRFHPIKETVVEEP [K8Y]	2.27
DLNSKGKNREFRFHPIKETVVEEP [K8N]	2.54
DLNSKGKDREFRFHPIKETVVEEP [K8D]	3.35
DLNSKGKCREFRFHPIKETVVEEP [K8C]	1.98
DLNSKGKGREFRFHPIKETVVEEP [K8G]	2.08
DLNSKGKTREFRFHPIKETVVEEP [K8T]	2.36
DLNSKGKQREFRFHPIKETVVEEP [K8Q]	2.77
DLNSKGKFREFRFHPIKETVVEEP [K8F]	2.09
DLNSKGKWREFRFHPIKETVVEEP [K8W]	2.27
DLNSKGKSREFRFHPIKETVVEEP [K8S]	2.23
DLNSKGKMREFRFHPIKETVVEEP [K8M]	1.93
DLNSKGKLREFRFHPIKETVVEEP [K8L]	1.96
DLNSKWKKREFRFHPIKETVVEEP [G6W]	2.12
DLNSKTKKREFRFHPIKETVVEEP [G6T]	2.38
DLNSKVKKREFRFHPIKETVVEEP [G6V]	2.56
DLNSKSKKREFRFHPIKETVVEEP [G6S]	2.03

Variant	protein stability index
DLNSKYKKREFRFHPIKETVVEEP [G6Y]	1.95
DLNSKGKKREFRAHPIKETVVEEP [F13A]	4.44
DLNSKGKKREFRWHPIKETVVEEP [F13W]	3.72
DLNSKGKKREFRYHPIKETVVEEP [F13Y]	2.47
DLNSKGKKREFRCHPIKETVVEEP [F13C]	3.94
DLNSKGKKREFRMHPIKETVVEEP [F13M]	4.25
DLNSKGKKREFRHHPIKETVVEEP [F13H]	3.75
DLNSKGKKREFRVHPIKETVVEEP [F13V]	4.47
DLNSKGKKREFRQHPIKETVVEEP [F13Q]	4.5
DLNSKGKKREFREHPIKETVVEEP [F13E]	4.75
DLNSKGKKREFRNHPIKETVVEEP [F13N]	4.65
DLNSKGKKREFRKHPIKETVVEEP [F13K]	4.06
DLNSKGKKREFRSHPIKETVVEEP [F13S]	4.27
DLNSKGKKREFRLHPIKETVVEEP [F13L]	4.78
DLNSKGKKREFRPHPIKETVVEEP [F13P]	4.48
DLNSKGKKREFRDHPIKETVVEEP [F13D]	4.71
DLNSKGKKREFRRHPIKETVVEEP [F13R]	3.99
DLNSKGKKREFRIHPIKETVVEEP [F13I]	3.78
DLNSKGKKREFRTHPIKETVVEEP [F13T]	4.02
DLNSKGKKREFRGHPIKETVVEEP [F13G]	4.31
